Experimental data from PMC3492541 (Nature structural & molecular biology, 2012).

B1: GST 7D (GST tail phosphomimetic in both zone 1 and zone 2) (domain or fragment, human, UniProt O14777 1-80, looked up)
chain: MKRSDVSDGGAGRLDMQELRSQDVNKQGLYTPQTKEKPTFGKLDINKPTSERKVDLFGKRTDGHGSRNDQLGIFSSSEKI
B2: GST 4D (GST tail phosphomimetic in zone 1) (domain or fragment, human, UniProt O14777 1-80, looked up)
chain: MKRSSVSSGGAGRLSMQELRSQDVNKQGLYTPQTKEKPTFGKLDINKPTSERKVDLFGKRTDGHGSRNDQLGIFSSSEKI
B3: GST tail phosphomimetic in zone 2 (domain or fragment, human, UniProt O14777 1-80, looked up)
chain: MKRSDVSDGGAGRLDMQELRSQDVNKQGLYTPQTKEKPTFGKLSINKPTSERKVSLFGKRTSGHGSRNSQLGIFSSSEKI

The binders below were run against taxol-stabilized microtubules (UniProt Q6B856 1-439) (assay: co-sedimentation).

Going from B1 to B2, the “reduction of microtubule binding relative to GST 1–80” value falls from 80% to 60%.

For B3, the “reduction of microtubule binding relative to GST 1–80” value was 20%.
